Assay results: the supplement of paper PMC10567573

B1: POMT2 (parent)
chain: LRGGGQVLLGWTLHYFPFFLMGRV

Variants of: B1
Assay: protein stability index of a GFP-peptide fusion (GPS, HEK-293T) (PSI 1-6); higher = more stable
Details: c terminus: a fixed tail appended
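Note: lentivirally expressed fusions sorted by FACS into six bins by GFP to DsRed ratio, PSI derived from sequencing read proportions per bin multiplied by bin number.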

Protein stability index of substitutions, site by site:
G3: M 1.82, Y 4.15, W 5.12
L8: V 1.64, A 2.97, R 3.14, Y 3.82, N 3
L9: H 1.91, F 2.91, A 3.06, N 2.66, T 2.66, Q 1.61, E 1.89, M 3.23, C 1.75, P 2.59
L13: D 1.29, C 1.51, S 3.02, E 2.93, P 2.64, W 3.5
T12: I 3.35, A 2.59, L 1.93, H 2.35, V 3.16, Y 2.7, S 2.1
G5: T 2.95, E 3.02, N 3.2, Y 3.6, D 3.03, I 4.58
H14: D 4.14, P 2.43, F 3.28, Y 3.36
M21: N 1.43, W 4.41, S 2.79, K 2.16, A 3.45
Q6: L 2.48, P 3.06, D 1.69, K 2.02, I 2.01, F 2.24
L20: N 3.25, S 1.7, P 5.95, F 4.18, W 2.38
G10: V 2.29, D 3.44, Y 3.25, T 2.89, W 2.32, F 3.45, I 1.92, S 3.85, N 1.97, Q 3.64, P 3.23
V7: C 1.26, R 2.7, T 1.32, K 4.17, Q 1.21, W 2.36, M 2.07, A 2.26, Y 4.03, G 3.97
F16: H 3.2, G 3.06, E 3.44, T 3.4, Q 2.26
W11: Y 1.2, M 1.04, Q 3, H 2.1, S 1.38, R 2.67, K 3.25, N 4.22, A 1.93, T 2.09, E 1.74, C 3.48
V24: Q 2.04, C 1.83, R 3.15, I 2.03, Y 3.27, H 3.69, A 1.72
F18: N 2.04, W 1.2, Y 1.42, E 4.02, V 3.11, T 1.98
G22: A 3.58, L 3.83, C 1.58, Q 1.28, P 2.64, D 3.12
L1: A 3.17, E 2.74, S 2.23, G 2.56, D 2.89, R 3.02, F 3.06
R23: I 4.29, T 3.19, S 2.85, W 3.02, E 3.15, C 2.79, D 1.88, Y 1.9
G4: K 3.19, Y 2.25, L 1.27, V 2.52, R 1.38, D 2.16, W 1.47, H 3.5, F 1.41, M 3.71
F19: A 2.89, N 2.04, Q 4.97, W 3.22, S 3.98, G 4.57, Y 2.17
P17: I 2.09, V 2.54, F 2.59, M 4.38, K 2.55, E 1.35, C 2.18, D 4.4, W 3.06, Q 4.16, R 3.18, N 2.79
R2: K 2.04, T 1.36, Q 1.79, W 3.48, L 2.63, P 2.6, D 3.49, Y 2.82, S 2.59
